Laboratory results taken from publication PMC5119734.

Legend:
[1] = biological target: Group B Streptococcus glyceraldehyde 3-phosphate dehydrogenase, wild type (Streptococcus agalactiae (Group B Streptococcus)); test: crystal structure; hanging drop vapor diffusion at 295 K, 20-28% PEG4000, 0.1 M MES pH 6.5; apo, mixed-holo, holo (2 mM NAD) and ternary (2 mM NAD, 11 mM DL-G3H) crystals; four subunits in the asymmetric unit
[2] = biological target: Group B Streptococcus glyceraldehyde 3-phosphate dehydrogenase, wild type (Streptococcus agalactiae (Group B Streptococcus)); test: SEC; Superdex 200 in 25 mM Hepes, 100 mM NaCl, 5 mM beta-mercaptoethanol, pH 7.35

Substance: Group B Streptococcus glyceraldehyde 3-phosphate dehydrogenase, wild type (enzyme)
- stoichiometry N [1]: 4
- stoichiometry N [2]: 4
